Assay results taken from the supplement of paper PMC10065799, “High-throughput profiling of sequence recognition by tyrosine kinases and SH2 domains using bacterial peptide display” (eLife, 2023).

How the values were obtained:
Grb2 SH2 = Grb2 SH2 (UniProt P62993); assay: SH2 binding enrichment of the phosphorylated peptide, bacterial display (enrichment ratio); higher = better substrate or ligand; peptides without Tyr show the background
SHP2-C SH2 = assay: as above
c-Src SH2 = assay: as above
c-Src = assay: phosphorylation enrichment, bacterial display (enrichment ratio); higher = better substrate or ligand; peptides without Tyr show the background
FGFR3 = FGFR3 (UniProt P22607); assay: as above
Fes = Fes (UniProt P07332); assay: as above
AncSZ = assay: as above
Fer (mouse) = assay: as above
EPHB1 = EPHB1 (UniProt P54762); assay: as above
EPHB2 = EPHB2 (UniProt P29323); assay: as above
Fyn = Fyn (UniProt P06241); assay: as above
Hck = Hck (UniProt P08631); assay: as above
Jak2 = Jak2 (UniProt O60674); assay: as above
FGFR1 = FGFR1 (UniProt P11362); assay: as above
MERTK = MERTK (UniProt Q12866); assay: as above
c-Abl (mouse) = assay: as above
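Throughout, for SH2 binding enrichment of the phosphorylated peptide, bacterial display: peptide library displayed on the E. coli surface as eCPX fusions, selected cells deep-sequenced, score is each peptide's frequency after selection divided by its frequency in the input.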
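Throughout, for phosphorylation enrichment, bacterial display: 11-residue human phosphosite peptides and single-mutation variants displayed on the E. coli surface, counted by deep sequencing, each peptide's frequency after selection divided by its frequency in the unselected input library; frequency after pTyr selection over input frequency; kinase dosed for 20-30% of maximal phosphorylation in three min.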

Chain of Fyn (P06241 whole entry, looked up): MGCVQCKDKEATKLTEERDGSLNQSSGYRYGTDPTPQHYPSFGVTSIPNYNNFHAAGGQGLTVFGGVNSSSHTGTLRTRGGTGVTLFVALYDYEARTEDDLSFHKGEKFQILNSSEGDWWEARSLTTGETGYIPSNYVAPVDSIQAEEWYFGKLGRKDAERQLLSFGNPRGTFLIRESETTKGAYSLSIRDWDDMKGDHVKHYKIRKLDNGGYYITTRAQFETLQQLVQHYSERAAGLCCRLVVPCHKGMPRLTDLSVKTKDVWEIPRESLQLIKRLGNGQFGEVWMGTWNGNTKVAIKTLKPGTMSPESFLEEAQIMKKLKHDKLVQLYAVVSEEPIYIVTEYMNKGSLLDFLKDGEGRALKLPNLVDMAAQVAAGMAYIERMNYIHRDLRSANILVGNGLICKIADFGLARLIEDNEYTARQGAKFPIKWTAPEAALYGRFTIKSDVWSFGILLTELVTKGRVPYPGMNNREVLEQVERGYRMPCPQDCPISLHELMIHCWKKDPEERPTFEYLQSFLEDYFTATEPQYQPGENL
Chain of Fes (P07332 whole entry, looked up): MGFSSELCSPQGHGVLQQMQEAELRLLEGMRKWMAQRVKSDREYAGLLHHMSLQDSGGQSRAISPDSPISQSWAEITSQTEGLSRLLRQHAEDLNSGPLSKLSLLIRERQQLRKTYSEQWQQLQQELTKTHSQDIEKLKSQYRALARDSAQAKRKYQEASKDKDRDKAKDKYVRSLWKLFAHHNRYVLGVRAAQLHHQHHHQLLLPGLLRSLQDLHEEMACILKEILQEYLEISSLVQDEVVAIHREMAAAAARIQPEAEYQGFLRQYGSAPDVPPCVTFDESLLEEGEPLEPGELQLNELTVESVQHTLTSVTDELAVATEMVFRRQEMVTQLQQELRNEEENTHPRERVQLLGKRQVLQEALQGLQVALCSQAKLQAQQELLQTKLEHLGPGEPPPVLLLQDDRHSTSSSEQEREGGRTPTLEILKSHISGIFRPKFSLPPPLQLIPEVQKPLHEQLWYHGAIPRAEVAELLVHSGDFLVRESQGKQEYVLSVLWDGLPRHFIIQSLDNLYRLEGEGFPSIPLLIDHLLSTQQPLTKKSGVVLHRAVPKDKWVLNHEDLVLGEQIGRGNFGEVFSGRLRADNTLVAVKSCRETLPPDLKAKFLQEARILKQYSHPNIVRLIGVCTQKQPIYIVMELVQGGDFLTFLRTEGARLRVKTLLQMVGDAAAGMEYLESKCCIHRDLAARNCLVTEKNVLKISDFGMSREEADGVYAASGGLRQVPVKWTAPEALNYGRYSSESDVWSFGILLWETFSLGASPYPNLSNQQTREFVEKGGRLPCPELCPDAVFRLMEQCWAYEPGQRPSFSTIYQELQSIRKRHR
Chain of MERTK (Q12866 whole entry, looked up): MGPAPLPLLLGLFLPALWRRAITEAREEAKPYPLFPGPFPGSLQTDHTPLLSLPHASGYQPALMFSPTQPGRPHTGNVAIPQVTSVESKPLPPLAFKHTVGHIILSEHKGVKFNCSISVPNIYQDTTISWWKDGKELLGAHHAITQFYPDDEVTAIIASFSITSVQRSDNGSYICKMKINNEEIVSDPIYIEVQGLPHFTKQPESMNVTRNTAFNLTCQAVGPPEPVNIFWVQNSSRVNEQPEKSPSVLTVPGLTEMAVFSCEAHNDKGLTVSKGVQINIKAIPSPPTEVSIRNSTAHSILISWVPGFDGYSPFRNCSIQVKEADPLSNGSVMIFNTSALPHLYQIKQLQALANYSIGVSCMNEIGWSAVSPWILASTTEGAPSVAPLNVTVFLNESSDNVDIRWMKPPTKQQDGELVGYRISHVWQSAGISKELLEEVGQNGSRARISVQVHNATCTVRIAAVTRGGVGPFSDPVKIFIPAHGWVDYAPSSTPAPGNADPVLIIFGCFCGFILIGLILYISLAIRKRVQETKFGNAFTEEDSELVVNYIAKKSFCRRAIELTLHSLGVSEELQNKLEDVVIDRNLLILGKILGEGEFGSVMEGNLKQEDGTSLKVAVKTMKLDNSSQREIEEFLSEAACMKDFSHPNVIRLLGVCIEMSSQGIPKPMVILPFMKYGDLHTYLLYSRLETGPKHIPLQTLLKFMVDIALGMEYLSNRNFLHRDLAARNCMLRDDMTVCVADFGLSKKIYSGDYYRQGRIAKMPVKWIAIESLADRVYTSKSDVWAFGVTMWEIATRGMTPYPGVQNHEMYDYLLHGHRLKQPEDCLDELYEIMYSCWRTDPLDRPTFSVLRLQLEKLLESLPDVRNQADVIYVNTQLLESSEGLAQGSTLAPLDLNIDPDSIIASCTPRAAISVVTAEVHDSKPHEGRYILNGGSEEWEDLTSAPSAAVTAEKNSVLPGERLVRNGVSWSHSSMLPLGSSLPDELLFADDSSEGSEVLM
Chain of FGFR1 (P11362 whole entry, looked up): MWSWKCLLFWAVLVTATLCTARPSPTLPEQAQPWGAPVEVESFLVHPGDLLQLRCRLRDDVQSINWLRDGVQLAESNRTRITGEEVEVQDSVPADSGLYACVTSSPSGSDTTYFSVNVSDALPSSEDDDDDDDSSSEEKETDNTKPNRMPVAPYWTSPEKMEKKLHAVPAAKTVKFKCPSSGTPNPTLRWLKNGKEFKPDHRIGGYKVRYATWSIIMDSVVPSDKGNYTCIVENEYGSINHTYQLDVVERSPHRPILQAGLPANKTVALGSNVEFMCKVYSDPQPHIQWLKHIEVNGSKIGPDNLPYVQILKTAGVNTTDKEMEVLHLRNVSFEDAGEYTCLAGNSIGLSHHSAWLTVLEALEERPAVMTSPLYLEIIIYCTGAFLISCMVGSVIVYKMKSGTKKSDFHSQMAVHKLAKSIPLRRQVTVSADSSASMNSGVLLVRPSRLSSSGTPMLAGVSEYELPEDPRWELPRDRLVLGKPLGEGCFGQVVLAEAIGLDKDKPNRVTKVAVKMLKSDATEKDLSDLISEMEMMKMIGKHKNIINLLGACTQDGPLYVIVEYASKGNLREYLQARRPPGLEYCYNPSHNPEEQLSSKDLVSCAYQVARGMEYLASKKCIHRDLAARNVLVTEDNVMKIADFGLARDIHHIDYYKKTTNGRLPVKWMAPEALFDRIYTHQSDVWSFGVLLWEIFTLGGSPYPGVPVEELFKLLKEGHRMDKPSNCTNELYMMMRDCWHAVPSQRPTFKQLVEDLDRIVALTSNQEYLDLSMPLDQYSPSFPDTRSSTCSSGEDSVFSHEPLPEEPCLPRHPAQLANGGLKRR
Chain of Jak2 (O60674 whole entry, looked up): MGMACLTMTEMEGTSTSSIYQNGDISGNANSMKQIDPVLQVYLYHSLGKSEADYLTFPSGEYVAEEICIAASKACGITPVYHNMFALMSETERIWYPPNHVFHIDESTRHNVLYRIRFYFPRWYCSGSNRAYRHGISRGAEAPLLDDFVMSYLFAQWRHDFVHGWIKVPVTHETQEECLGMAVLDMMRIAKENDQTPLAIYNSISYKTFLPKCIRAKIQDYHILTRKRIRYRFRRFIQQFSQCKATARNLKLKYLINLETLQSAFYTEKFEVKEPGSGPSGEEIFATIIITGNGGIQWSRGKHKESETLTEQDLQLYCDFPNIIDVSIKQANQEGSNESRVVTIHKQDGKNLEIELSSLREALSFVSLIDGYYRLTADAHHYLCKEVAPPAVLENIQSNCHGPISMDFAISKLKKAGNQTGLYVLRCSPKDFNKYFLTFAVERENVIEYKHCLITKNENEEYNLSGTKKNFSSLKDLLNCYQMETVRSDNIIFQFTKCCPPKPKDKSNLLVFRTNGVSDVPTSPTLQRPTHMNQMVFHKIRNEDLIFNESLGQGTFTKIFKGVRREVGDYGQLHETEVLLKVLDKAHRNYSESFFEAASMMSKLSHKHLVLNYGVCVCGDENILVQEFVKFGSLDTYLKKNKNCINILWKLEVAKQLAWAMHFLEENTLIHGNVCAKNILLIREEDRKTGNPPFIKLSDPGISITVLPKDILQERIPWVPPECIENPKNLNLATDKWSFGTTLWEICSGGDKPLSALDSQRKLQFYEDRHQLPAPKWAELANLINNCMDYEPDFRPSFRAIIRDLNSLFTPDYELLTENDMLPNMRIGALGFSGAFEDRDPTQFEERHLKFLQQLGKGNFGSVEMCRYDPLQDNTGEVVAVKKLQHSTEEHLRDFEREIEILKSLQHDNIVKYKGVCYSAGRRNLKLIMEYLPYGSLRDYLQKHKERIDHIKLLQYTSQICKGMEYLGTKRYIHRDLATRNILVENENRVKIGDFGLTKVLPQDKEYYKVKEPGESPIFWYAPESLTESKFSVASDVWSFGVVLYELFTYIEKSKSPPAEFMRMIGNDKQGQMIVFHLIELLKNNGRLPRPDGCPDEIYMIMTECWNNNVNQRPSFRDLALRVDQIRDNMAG
Chain of Hck (P08631 whole entry, looked up): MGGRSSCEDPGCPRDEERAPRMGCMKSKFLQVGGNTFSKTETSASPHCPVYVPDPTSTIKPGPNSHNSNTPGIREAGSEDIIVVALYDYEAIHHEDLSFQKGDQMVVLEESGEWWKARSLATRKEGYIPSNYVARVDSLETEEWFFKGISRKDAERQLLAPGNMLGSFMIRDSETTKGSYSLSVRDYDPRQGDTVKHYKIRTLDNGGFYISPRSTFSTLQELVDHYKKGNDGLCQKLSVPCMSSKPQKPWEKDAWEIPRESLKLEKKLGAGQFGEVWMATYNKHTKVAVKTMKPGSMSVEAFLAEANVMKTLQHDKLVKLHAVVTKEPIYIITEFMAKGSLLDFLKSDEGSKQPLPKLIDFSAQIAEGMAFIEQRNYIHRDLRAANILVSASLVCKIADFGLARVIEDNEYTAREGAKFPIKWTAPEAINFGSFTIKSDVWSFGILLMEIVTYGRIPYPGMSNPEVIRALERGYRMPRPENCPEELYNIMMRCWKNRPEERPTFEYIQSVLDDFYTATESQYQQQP

SH2 binding enrichment (Grb2 SH2)	SH2 binding enrichment (SHP2-C SH2)	SH2 binding enrichment (c-Src SH2)	Sequence	phosphorylation enrichment (c-Src)	phosphorylation enrichment (FGFR3)	phosphorylation enrichment (Fes)	phosphorylation enrichment (AncSZ)	phosphorylation enrichment (Fer (mouse))	phosphorylation enrichment (EPHB1)	phosphorylation enrichment (EPHB2)	phosphorylation enrichment (Fyn)	phosphorylation enrichment (Hck)	phosphorylation enrichment (Jak2)	phosphorylation enrichment (FGFR1)	phosphorylation enrichment (MERTK)	phosphorylation enrichment (c-Abl (mouse))
0.943	0.865	0.709	LQPNNCQFCGG [CSF1R_Y969_Y969C]	0.647	1.21	0.858	0.929	0.348	0.735	0.711	0.752	0.987	1.05	0.752	0.785	1.07
0.933	0.769	0.723	GLRYGYGVLGG [KRTAP20-2_Y15]	0.9	0.497	0.605	0.596	0.432	0.407	0.398	0.495	0.443	0.586	0.447	0.413	0.487
1.02	0.884	0.714	VASSLYDIFAR [GLB1_Y294_L297F]	6.38	0.714	0.948	1.09	3.12	1.46	1.81	6.66	8.55	0.927	0.637	11.4	1.25
1.16	0.777	0.636	QWQQLYDTLNA [EIF3M_Y351]	3.99	0.932	1.29	1.63	4.62	2.15	1.63	5.55	8.42	1.06	0.556	6.06	0.546
0.987	0.903	0.547	FADIAYNFRHA [PAH_Y166_G171A_YF]	0.473	0.462	0.591	0.661	0.348	0.293	0.342	0.497	0.432	0.524	0.386	0.388	0.506
0.769	0.381	0.439	IIQRAYRRHLL [SCN1A_Y1926]	0.584	0.525	0.619	0.845	0.497	0.479	0.433	0.509	0.576	0.491	0.499	0.608	0.552
0.74	0.889	1.81	CTLLPYYSARV [DGKE_Y269]	0.579	0.699	1.04	1.03	0.497	0.601	0.655	0.464	0.604	0.937	0.485	0.508	0.735
0.752	0.484	0.477	IGEVVYQRAVM [GRIN2A_Y502]	1.57	0.595	0.856	0.869	1.46	0.883	0.554	1.14	2.19	0.688	0.434	0.513	8.27
0.777	0.737	1.6	SLIDMYSKVLD [OPA1_Y268_E270K]	0.478	0.637	1.02	0.953	0.501	0.462	0.57	0.421	0.497	0.814	0.479	0.481	0.482
1.19	0.838	1.02	YCVDCYKNFVA [FHL1_Y213]	0.507	0.651	0.832	0.668	0.532	0.564	0.514	0.532	0.54	0.726	0.572	0.722	0.737
0.762	0.436	0.522	EKKKKYMLPLD [DNM2_Y563_E560K]	0.496	0.506	0.951	0.594	0.502	0.52	0.469	0.604	0.452	0.567	0.5	0.504	0.691
1.25	1.29	1.06	IHRWVYPLTPE [EIF2B5_Y319_R315H]	0.446	0.698	0.918	1.03	0.405	0.525	0.503	0.511	0.487	0.885	0.488	0.487	0.621
0.79	0.715	0.46	YRKNTYNVKST [SYNE2_Y575_I574T]	0.398	0.361	0.465	0.415	0.327	0.351	0.296	0.344	0.346	0.393	0.334	0.316	0.351
0.879	0.54	0.453	QDTSRYTVSNL [BIRC3_Y245]	0.617	0.71	0.824	0.971	0.501	0.675	0.467	0.523	0.467	0.644	0.516	0.567	0.804
1	0.723	0.62	FTHSDYQFSQR [PKP2_Y166_YF]	0.455	0.646	0.764	0.828	0.594	0.435	0.538	0.63	0.508	0.589	0.458	0.383	0.619
0.892	0.899	0.755	EVEFEYPFRLH [SYP_Y73]	0.588	0.724	1.37	1	0.489	0.564	0.584	0.336	0.509	1.5	0.42	0.396	0.735
0.818	0.674	2.06	EEGNPYYSSAR [MCCC2_Y520]	1.99	0.647	0.845	1.09	0.528	0.499	0.473	0.793	1.18	0.848	0.468	0.422	0.679
